Assay results: patent US12570709B2, “Self-assembling peptide amphiphiles displaying a transforming growth factor beta 1 (TGF-ß1) mimetic epitope” (Northwestern University, priority 2021, dated 2026)
Bridge positions count the residues as written; N and C are the ends. Ends that are not written are not given here. I, II: the chains in the order shown. * marks the point of attachment. Palmitoyl = CCCCCCCCCCCCCCCC(=O)*

Tests used:
[1] = Rheology of PA hydrogels (strain sweep, G′/G″ crossover); type: physicochemical; conditions: PA gels, 10 mol % co-assemblies
Method: Gels were made using 2 wt % PA solutions prepared as previously described, using 10 mol % co-assemblies of epitope PA with diluent PA. 12-well chamber slides (Ibidi) were coated with 0.01 mg/mL poly-D-lysine (Sigma-Aldrich) solution and incubated overnight at 37° C. The wells were washed three times with water and air-dried for at least 30 minutes. 120 μL of PA solution was pipetted evenly into the well and gelling solution comprised of 110 mM NaCl, 3 mM KCl, and 25 mM CaCl2 was pipetted dropwise on top of the PA solution. The gels were incubated at 37° C. for 30 minutes, and then excess gelling solution was removed.
Measurements were performed on an Anton Paar MCR302 rheometer with a 25 mm parallel-plate fixture. 120 μL of the PA/HA hybrid slurry was placed on the bottom plate and 30 μL of a 50 mM CaCl2/75 mM NaCl gelling solution was placed on the upper fixture. The fixture was lowered to a gap of 0.5 mm for 10 min during which time a 0.1% oscillatory strain was applied with a 10 rad/s angular frequency. The gap height was allowed to vary to keep the normal force at 0 N. Next, a strain sweep was performed at 10 rad/s from 0.1% to 100% strain to measure the strain to break the gel.

[2] = system: human chondrocytes encapsulated in PA hydrogels; assay: F-actin ICC and confocal microscopy of chondrocytes encapsulated in PA gels; type: cell-based; conditions: three days in vitro
Method: Fixed samples were permeabilized and blocked in a solution of 0.1% (v/v) Triton X-100 and 1% normal horse serum (Invitrogen) for 2 hours at room temperature. Samples were incubated with primary antibodies overnight at 4° C. The following primary antibodies were used: rabbit anti-Sox9 (1:500, Abcam), mouse anti-Aggrecan (1:500, ThermoFisher), mouse anti-Collagen II (1:500, ThermoFisher), and mouse anti-Nuclei (1:500, Sigma-Aldrich). The next day, samples were incubated with AlexaFluor 488 secondary antibody, AlexaFluor 555 secondary antibody, Phalloidin AlexaFluor 488, and/or Phalloidin AlexaFluor 633 (1:1000, Invitrogen) for 2-3 h at room temperature. For 2D cell culture, samples were then incubated with DAPI (1:1000, Invitrogen) for 10 minutes at room temperature. If not already on a glass coverslip, samples were mounted with Immu-Mount (Thermo Scientific) and imaged on a Nikon A1R Spectral microscope. Image analysis was performed using ImageJ software.
Chondrocytes were trypsinized and resuspended in growth media for counting, and then pelleted and resuspended to 6×10^7 cells/mL in growth media. The cell solution was mixed 1:2 v/v with sterile PA solution prepared at 3 wt % in 30 mM NaCl. For gels also encapsulating rhTGF-β1 protein (R&D Systems), soluble protein was added to PA solutions after thermal annealing. 120 μL of PA/cell solution was mixed thoroughly by pipetting gently and then placed into PDL-coated 12-well chamber slides (Ibidi). Sterile gelling solution, comprised of 110 mM NaCl, 3 mM KCl, and 25 mM CaCl2, was pipetted dropwise on top of the PA/cell solution and the gels were incubated for 30 minutes at 37° C. Following incubation, excess gelling solution was removed and 250 μL of growth media was added to each well. The media was removed after 3 days for LDH viability assays as described above. For ICC, after 3 days of in vitro culture, gels were fixed in 4% paraformaldehyde for 30 minutes at room temperature.

TGF PA-a: backbone PA-a (SEQ ID NO: 7) conjugated to cyclic TGF-β1 mimetic peptide (SEQ ID NO: 1) by a linker; co-assembled with diluent Backbone PA-a (chain Palmitoyl-AAEEK-OH; peptide CESPLKRQC; disulfide II:1-II:9; not fully specified (some residues); also: co-assembled with diluent backbone PA-a)
G′/G″ crossover % strain [1]: 5.80 ± 1.40%
G′/G″ crossover storage modulus [1]: 0.63 ± 1.14 kPa
morphology and distribution of encapsulated cells [2]: compact, elliptical morphologies and were well-dispersed
cells within the bulk of the gel ([2]; equal concentrations of cells encapsulated): remained inside the gels and survived three days in vitro
